This note sets out measurements from US20240034757A1 (OXFORD UNIVERSITY INNOVATION, published 2024).

B1: P1172_IXORI (other)
chain: LHEDEIFTVDYCGTNCTKQSNGSWTTCPGNCSCYHEDGKTDGFCLSTEYTDFTQFPNLTSEEMDAATPRPE

Test [1] has as its target T1, CXCL11_HUMAN (human, UniProt O14625 22-94).
T1 sequence: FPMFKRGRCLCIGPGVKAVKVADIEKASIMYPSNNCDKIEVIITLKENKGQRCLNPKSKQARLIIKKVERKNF
As to the kind of experiment: BLI. For orientation: In BLI a coated tip is dipped into the sample, and binding shifts an interference pattern.

In test [2] the target is T2, CXCL13_HUMAN (human, UniProt O43927 23-109).
T2 sequence: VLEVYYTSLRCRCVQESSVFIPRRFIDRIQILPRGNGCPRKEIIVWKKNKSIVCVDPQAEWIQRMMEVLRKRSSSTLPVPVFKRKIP
As to the kind of experiment: BLI.

Test [3] deals with CXCL12_HUMAN (human, UniProt P48061 22-89). As to the kind of experiment: BLI.
Test [4] deals with T3, CXCL9_HUMAN (human, UniProt Q07325 23-125).
T3 sequence: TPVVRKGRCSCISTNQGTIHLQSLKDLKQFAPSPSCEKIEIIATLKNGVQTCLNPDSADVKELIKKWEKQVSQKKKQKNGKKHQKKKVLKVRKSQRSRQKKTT
As to the kind of experiment: BLI.

The target of test [5] is T4, CXCL10_HUMAN (human, UniProt P02778 22-98).
T4 sequence: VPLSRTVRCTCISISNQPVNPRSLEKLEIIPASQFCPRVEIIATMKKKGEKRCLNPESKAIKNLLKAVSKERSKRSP
As to the kind of experiment: BLI.

The target in test [6] is T5, CXCL14_HUMAN (human, UniProt O95715 35-111).
T5 sequence: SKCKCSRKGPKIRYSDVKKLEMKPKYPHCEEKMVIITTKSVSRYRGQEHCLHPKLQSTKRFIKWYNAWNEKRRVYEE
As to the kind of experiment: BLI.

Test [7] has as its target T6, CXCL8_HUMAN (human, UniProt P10145 28-99).
T6 sequence: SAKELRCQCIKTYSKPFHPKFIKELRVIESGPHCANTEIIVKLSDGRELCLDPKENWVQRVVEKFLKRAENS
Nature of the test: yeast surface display FACS re-test. Further: test concentration or dose not given here.

Test [8] concerns the target T7, CXCL1_HUMAN (human, UniProt P09341 35-107).
T7 sequence: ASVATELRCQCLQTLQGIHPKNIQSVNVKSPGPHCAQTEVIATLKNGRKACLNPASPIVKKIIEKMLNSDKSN
As to the kind of experiment: yeast surface display FACS re-test. Further: test concentration or dose not given here.

For test [9], the target named is T8, CXCL3_HUMAN (human, UniProt P19876 35-107).
T8 sequence: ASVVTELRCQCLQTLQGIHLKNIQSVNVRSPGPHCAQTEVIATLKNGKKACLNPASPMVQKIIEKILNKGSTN
As to the kind of experiment: BLI [Cont.].

For test [10], the target named is T9, CXCL6_HUMAN (human, UniProt P80162 38-114).
T9 sequence: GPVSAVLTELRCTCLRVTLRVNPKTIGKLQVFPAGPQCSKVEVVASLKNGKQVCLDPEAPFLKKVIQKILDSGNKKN
As to the kind of experiment: BLI [Cont.].

Test [11] addresses T10, CXCL2_HUMAN (human, UniProt P19875 35-107).
T10 sequence: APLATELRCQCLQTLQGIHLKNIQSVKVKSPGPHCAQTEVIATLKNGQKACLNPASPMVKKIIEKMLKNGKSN
Nature of the test: BLI [Cont.].

Test [12] concerns the target B1. Nature of the test: BLI [Cont.].
The target in test [13] is T11, P1134_IXORI (Ixodes ricinus, UniProt A0A0K8RAI0 32-135).
T11 sequence: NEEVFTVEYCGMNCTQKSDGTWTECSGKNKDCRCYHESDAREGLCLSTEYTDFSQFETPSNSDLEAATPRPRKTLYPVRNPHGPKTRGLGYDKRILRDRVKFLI
Nature of the test: BLI [Cont.].

In test [14] the target is T12, P1142_AMBCA (Amblyomma cajennense, UniProt A0A023FBW4 26-97).
T12 sequence: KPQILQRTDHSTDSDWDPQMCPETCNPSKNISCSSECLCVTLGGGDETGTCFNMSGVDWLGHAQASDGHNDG
As to the kind of experiment: BLI [Cont.].

Test [15] deals with T13, P1166_IXORI (Ixodes ricinus, UniProt A0A0K8RE99 25-110).
T13 sequence: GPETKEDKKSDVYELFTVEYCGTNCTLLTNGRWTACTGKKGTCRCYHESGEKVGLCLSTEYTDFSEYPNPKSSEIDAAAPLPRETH
Nature of the test: BLI [Cont.].

The target of test [16] is T14, P1132_IXORI (Ixodes ricinus, UniProt V5GZ08 29-106).
T14 sequence: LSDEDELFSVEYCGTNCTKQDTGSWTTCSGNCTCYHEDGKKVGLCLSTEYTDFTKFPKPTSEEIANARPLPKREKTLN
Nature of the test: BLI [Cont.].

Test [17] has as its target T15, P1162_IXORI (Ixodes ricinus, UniProt A0A0K8RDJ1 29-99).
T15 sequence: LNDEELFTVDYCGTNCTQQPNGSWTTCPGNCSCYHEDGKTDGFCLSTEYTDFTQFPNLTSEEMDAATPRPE
Nature of the test: BLI [Cont.].

Test [18] has as its target P1080_IXORI (Ixodes ricinus, UniProt A0A090XBL6 20-118). As to the kind of experiment: BLI [Cont.].
Test [19] deals with T16, P1096_IXORI (Ixodes ricinus, UniProt A0A0K8RKE4 24-114).
T16 sequence: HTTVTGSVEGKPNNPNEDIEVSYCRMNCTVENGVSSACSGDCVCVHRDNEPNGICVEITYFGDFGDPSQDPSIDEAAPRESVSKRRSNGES
As to the kind of experiment: BLI [Cont.].

Test [20] concerns the target T17, P1174_IXORI (Ixodes ricinus, UniProt V5I3C5 28-104).
T17 sequence: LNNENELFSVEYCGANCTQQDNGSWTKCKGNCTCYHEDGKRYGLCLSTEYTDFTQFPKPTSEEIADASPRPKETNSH
Nature of the test: BLI [Cont.].

The target in test [21] is T18, P1128_IXORI (Ixodes ricinus, UniProt A0A0K8R6B3 19-90).
T18 sequence: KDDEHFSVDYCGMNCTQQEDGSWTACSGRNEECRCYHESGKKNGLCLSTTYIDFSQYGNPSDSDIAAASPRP
Nature of the test: BLI [Cont.].

Test [22] has as its target T19, P1229_IXORI (Ixodes ricinus, UniProt A0A0K8R4R9 32-108).
T19 sequence: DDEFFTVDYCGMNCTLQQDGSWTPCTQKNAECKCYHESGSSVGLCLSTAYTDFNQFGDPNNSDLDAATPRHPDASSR
Nature of the test: BLI [Cont.].

The target of test [23] is T20, P1095_IXORI (Ixodes ricinus, UniProt A0A0K8RCE3 24-112).
T20 sequence: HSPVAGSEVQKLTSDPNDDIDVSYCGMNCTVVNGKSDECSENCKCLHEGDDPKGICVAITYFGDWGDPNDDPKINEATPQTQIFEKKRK
Nature of the test: BLI [Cont.].

Test [24] concerns the target T21, P1168_IXORI (Ixodes ricinus, UniProt A0A0K8RCU3 25-106).
T21 sequence: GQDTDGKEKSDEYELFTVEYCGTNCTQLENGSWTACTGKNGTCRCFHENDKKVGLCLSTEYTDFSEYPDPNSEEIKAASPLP
As to the kind of experiment: BLI [Cont.].

In test [25] the target is T22, P1127_IXORI (Ixodes ricinus, UniProt A0A0K8RJ67 29-108).
T22 sequence: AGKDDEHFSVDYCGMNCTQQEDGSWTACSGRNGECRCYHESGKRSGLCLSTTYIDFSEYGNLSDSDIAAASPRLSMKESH
Nature of the test: BLI [Cont.].

Test [26] addresses T23, P1170_IXORI (Ixodes ricinus, UniProt A0A0K8RD51 29-102).
T23 sequence: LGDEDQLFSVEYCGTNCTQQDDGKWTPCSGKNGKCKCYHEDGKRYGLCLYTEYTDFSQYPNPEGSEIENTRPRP
Nature of the test: BLI [Cont.].

Test [27] deals with T24, P1156_IXORI (Ixodes ricinus, UniProt V5HBW0 29-108).
T24 sequence: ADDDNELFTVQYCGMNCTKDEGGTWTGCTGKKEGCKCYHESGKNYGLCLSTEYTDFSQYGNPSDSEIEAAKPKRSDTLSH
As to the kind of experiment: BLI [Cont.) C].

One may read the Kd as the constant that tells how readily two partners part at equilibrium.

Chain of P1080_IXORI (A0A090XBL6 20-118): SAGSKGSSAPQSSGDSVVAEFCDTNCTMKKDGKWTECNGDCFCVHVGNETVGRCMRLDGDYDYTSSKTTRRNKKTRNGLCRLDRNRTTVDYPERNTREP
Chain of CXCL12_HUMAN (P48061 22-89 limits assumed): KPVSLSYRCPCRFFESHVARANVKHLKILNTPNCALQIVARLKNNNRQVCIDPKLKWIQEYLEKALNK

In the case of B1, the binding result in test [1], in [2], in [3], in [4], in test [5] and in [6] was “no binding (tested: 300 nM)” throughout. Also, the binding result in [9] and in test [10] was “no binding (tested: 300 nM)” throughout. Moreover, the “% cells over threshold fluorescence” value was found to be 41% in test [7] and 65% in [8]. This molecule also registered a Kd in test [11] of 26 nM.

B2: CXCL4_HUMAN (ligand)
chain: EAEEDGDLQCLCVKTTSQVRPRHITSLEVIKAGPHCPTAQLIATLKNGRKICLDLQAPLYKKIIKKLLES
As for B2, the binding result in test [12], in test [13], in [15], in test [16], in test [17] and in [19] was “no binding (tested: 300 nM)” in each case. Besides, the binding result in test [20], in [21], in test [22], in [23], in test [24] and in [25] was “no binding (tested: 300 nM)” throughout. The binding result in test [26] and in test [27] was “no binding (tested: 300 nM)” throughout. For the same molecule, the Kd was 381 nM in test [14] and 2310 nM in [18].
